Results taken from PMC7379967 (The Febs Journal, 2018).

Assays:
[1] = biological target: T1, cdMMP‐3 (Homo sapiens, UniProt P08254); assay: Gelatin‐Sepharose bound serum proMMP‐9 activation by cdMMP‐3, zymography; format: biochemical; details: 5 μl serum, 0-14.2 nM cdMMP‐3, 3 h, 37 °C, CDG patients n = 5, healthy controls n = 7, Fig. 8
[2] = biological target: T1, cdMMP‐3; assay: Stepwise activation of proMMP‐9 glycoforms by cdMMP‐3, gelatin zymography; format: biochemical; details: with galectin‐3 (1/10), Fig. 9B

T1 sequence (P08254 100-272 limits assumed): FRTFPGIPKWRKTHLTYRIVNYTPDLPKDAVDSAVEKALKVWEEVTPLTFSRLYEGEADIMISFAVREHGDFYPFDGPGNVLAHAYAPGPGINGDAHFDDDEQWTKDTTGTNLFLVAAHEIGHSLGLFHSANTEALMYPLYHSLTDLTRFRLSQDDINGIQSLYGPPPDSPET

Molecule | activation of serum proMMP‐9 by MMP‐3 [1] | conversion into active form on overnight incubation with cdMMP‐3 and galectin‐3 [2]
proMMP‐9 from CDG patients: serum proMMP‐9 of PMM2‐CDG patients, defective N‐glycosylation (protein, UniProt P14780 20-707, looked up, pro-form) pro-form: APRQRQSTLVLFPGDLRTNLTDRQLAEEYLYRYGYTRVAEMRGESKSLGPALLLLQKQLSLPETGELDSATLKAMRTPRCGVPDLGRFQTFEGDLKWHHHNITYWIQNYSEDLPRAVIDDAFARAFALWSAVTPLTFTRVYSRDADIVIQFGVAEHGDGYPFDGKDGLLAHAFPPGPGIQGDAHFDDDELWSLGKGVVVPTRFGNADGAACHFPFIFEGRSYSACTTDGRSDGLPWCSTTANYDTDDRFGFCPSERLYTQDGNADGKPCQFPFIFQGQSYSACTTDGRSDGYRWCATTANYDRDKLFGFCPTRADSTVMGGNSAGELCVFPFTFLGKEYSTCTSEGRGDGRLWCATTSNFDSDKKWGFCPDQGYSLFLVAAHEFGHALGLDHSSVPEALMYPMYRFTEGPPLHKDDVNGIRHLYGPRPEPEPRPPTTTTPQPTAPPTVCPTGPPTVHPSERPTAGPTGPPSAGPTGPPTAGPSTATTVPLSPVDDACNVNIFDAIAEIGNQLYLFKDGKYWRFSEGRGSRPQGPFLIADKWPALPRKLDSVFEERLSKKLFFFSGRQVWVYTGASVLGPRRLDKLGLGADVAQVTGALRSGRGKMLLFSGRRLWRFDVKAQMVDPRSASEVDRMFPGVPLDTHDVFQYREKAYFCQDRFYWRVSSRSELNQVDQVGYVTYDILQCPED | significantly faster activation | –
recombinant proMMP‐9: recombinant full‐length human proMMP‐9 expressed in Sf‐9 insect cells (protein, UniProt P14780 20-707, looked up, pro-form) pro-form: APRQRQSTLVLFPGDLRTNLTDRQLAEEYLYRYGYTRVAEMRGESKSLGPALLLLQKQLSLPETGELDSATLKAMRTPRCGVPDLGRFQTFEGDLKWHHHNITYWIQNYSEDLPRAVIDDAFARAFALWSAVTPLTFTRVYSRDADIVIQFGVAEHGDGYPFDGKDGLLAHAFPPGPGIQGDAHFDDDELWSLGKGVVVPTRFGNADGAACHFPFIFEGRSYSACTTDGRSDGLPWCSTTANYDTDDRFGFCPSERLYTQDGNADGKPCQFPFIFQGQSYSACTTDGRSDGYRWCATTANYDRDKLFGFCPTRADSTVMGGNSAGELCVFPFTFLGKEYSTCTSEGRGDGRLWCATTSNFDSDKKWGFCPDQGYSLFLVAAHEFGHALGLDHSSVPEALMYPMYRFTEGPPLHKDDVNGIRHLYGPRPEPEPRPPTTTTPQPTAPPTVCPTGPPTVHPSERPTAGPTGPPSAGPTGPPTAGPSTATTVPLSPVDDACNVNIFDAIAEIGNQLYLFKDGKYWRFSEGRGSRPQGPFLIADKWPALPRKLDSVFEERLSKKLFFFSGRQVWVYTGASVLGPRRLDKLGLGADVAQVTGALRSGRGKMLLFSGRRLWRFDVKAQMVDPRSASEVDRMFPGVPLDTHDVFQYREKAYFCQDRFYWRVSSRSELNQVDQVGYVTYDILQCPED | – | fully converted into its active form
